# Source: patent US20140087995A1 (published 2014)
# Numbered stars: 1 amine (or outer) side, 2 acyl side, 3 side chain; on linkers, the order of the positions; unused ones are H or OH. Bridge positions count the residues as written; N and C are the ends. Side chains are listed from the residue outwards. Ends that are not written are not given here. * marks the point of attachment. C20 diacid = O=C(O)CCCCCCCCCCCCCCCCCCC(=O)*; γGlu = O=C(O)[C@H](CCC(=O)[*:2])N[*:1]; AEEA = NCCOCCOCC(=O)O
# T1: human amylin receptor (amylin 3(a) receptor: human calcitonin receptor with RAMP-3) (human, UniProt P30988 25-474; O60896 24-148)
# T1 construct: whole, on cells; also called hAmylin-R; hAmylinR
# T1 sequence (looked up) 1: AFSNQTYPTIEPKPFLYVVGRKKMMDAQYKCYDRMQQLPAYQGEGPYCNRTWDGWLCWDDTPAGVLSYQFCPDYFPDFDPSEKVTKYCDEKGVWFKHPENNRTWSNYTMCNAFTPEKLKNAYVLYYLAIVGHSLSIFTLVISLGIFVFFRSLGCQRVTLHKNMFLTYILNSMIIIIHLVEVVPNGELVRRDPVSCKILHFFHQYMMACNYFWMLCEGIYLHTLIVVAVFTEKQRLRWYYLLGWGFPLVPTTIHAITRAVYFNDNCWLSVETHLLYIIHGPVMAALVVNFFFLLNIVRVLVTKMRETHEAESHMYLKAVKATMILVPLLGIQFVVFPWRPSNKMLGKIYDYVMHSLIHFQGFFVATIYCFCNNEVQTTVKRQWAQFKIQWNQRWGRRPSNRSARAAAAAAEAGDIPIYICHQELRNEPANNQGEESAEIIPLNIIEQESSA
# T1 sequence (looked up) 2: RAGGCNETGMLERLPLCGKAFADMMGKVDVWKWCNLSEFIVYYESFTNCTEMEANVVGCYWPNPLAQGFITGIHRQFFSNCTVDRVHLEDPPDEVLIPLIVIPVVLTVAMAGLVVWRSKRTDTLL
# B1: N^α1-[(4S)-4-carboxy-4-(19-carboxynonadecanoylamino)butanoyl]-[Glu14,Arg17,Pro21,Pro27,Pro31]-h-amylin (peptide)
# peptide: {C20 diacid-γGlu}-KCNTATCATQRLAEFLRHSSPNFGAIPSSTPVGSNTY-NH2
# modifications: disulfide 2-7
# SMILES: CC[C@H](C)[C@H](NC(=O)[C@H](C)NC(=O)CNC(=O)[C@H](Cc1ccccc1)NC(=O)[C@H](CC(N)=O)NC(=O)[C@@H]1CCCN1C(=O)[C@H](CO)NC(=O)[C@H](CO)NC(=O)[C@H](Cc1c[nH]cn1)NC(=O)[C@H](CCCNC(=N)N)NC(=O)[C@H](CC(C)C)NC(=O)[C@H](Cc1ccccc1)NC(=O)[C@H](CCC(=O)O)NC(=O)[C@H](C)NC(=O)[C@H](CC(C)C)NC(=O)[C@H](CCCNC(=N)N)NC(=O)[C@H](CCC(N)=O)NC(=O)[C@@H](NC(=O)[C@H](C)NC(=O)[C@@H]1CSSC[C@H](NC(=O)[C@H](CCCCN)NC(=O)CC[C@H](NC(=O)CCCCCCCCCCCCCCCCCCC(=O)O)C(=O)O)C(=O)N[C@@H](CC(N)=O)C(=O)N[C@@H]([C@@H](C)O)C(=O)N[C@@H](C)C(=O)N[C@@H]([C@@H](C)O)C(=O)N1)[C@@H](C)O)C(=O)N1CCC[C@H]1C(=O)N[C@@H](CO)C(=O)N[C@@H](CO)C(=O)N[C@H](C(=O)N1CCC[C@H]1C(=O)N[C@H](C(=O)NCC(=O)N[C@@H](CO)C(=O)N[C@@H](CC(N)=O)C(=O)N[C@H](C(=O)N[C@@H](Cc1ccc(O)cc1)C(N)=O)[C@@H](C)O)C(C)C)[C@@H](C)O
# notes: also called 31; compound 31
# B2: N^α1-[(4S)-4-carboxy-4-(19-carboxynonadecanoylamino)butanoyl]-[Glu14,Arg17,Pro21,Pro27]-h-amylin (peptide)
# peptide: KCNTATCATQRLAEFLRHSSPNFGAIPSSTNVGSNTY
# modifications: C20 diacid-gGlu on alpha amino group of N-terminal Lys 1; Cys2-Cys7 disulfide; C-terminal amide
# notes: also called compound 9
# B3: N^α1-[(4S)-4-carboxy-4-(19-carboxynonadecanoylamino)butanoyl]-[His14,Arg17,Pro21,Pro27,Glu35]-h-amylin (peptide)
# peptide: {C20 diacid-γGlu}-KCNTATCATQRLAHFLRHSSPNFGAIPSSTNVGSETY-NH2
# modifications: disulfide 2-7
# SMILES: CC[C@H](C)[C@H](NC(=O)[C@H](C)NC(=O)CNC(=O)[C@H](Cc1ccccc1)NC(=O)[C@H](CC(N)=O)NC(=O)[C@@H]1CCCN1C(=O)[C@H](CO)NC(=O)[C@H](CO)NC(=O)[C@H](Cc1c[nH]cn1)NC(=O)[C@H](CCCNC(=N)N)NC(=O)[C@H](CC(C)C)NC(=O)[C@H](Cc1ccccc1)NC(=O)[C@H](Cc1c[nH]cn1)NC(=O)[C@H](C)NC(=O)[C@H](CC(C)C)NC(=O)[C@H](CCCNC(=N)N)NC(=O)[C@H](CCC(N)=O)NC(=O)[C@@H](NC(=O)[C@H](C)NC(=O)[C@@H]1CSSC[C@H](NC(=O)[C@H](CCCCN)NC(=O)CC[C@H](NC(=O)CCCCCCCCCCCCCCCCCCC(=O)O)C(=O)O)C(=O)N[C@@H](CC(N)=O)C(=O)N[C@@H]([C@@H](C)O)C(=O)N[C@@H](C)C(=O)N[C@@H]([C@@H](C)O)C(=O)N1)[C@@H](C)O)C(=O)N1CCC[C@H]1C(=O)N[C@@H](CO)C(=O)N[C@@H](CO)C(=O)N[C@H](C(=O)N[C@@H](CC(N)=O)C(=O)N[C@H](C(=O)NCC(=O)N[C@@H](CO)C(=O)N[C@@H](CCC(=O)O)C(=O)N[C@H](C(=O)N[C@@H](Cc1ccc(O)cc1)C(N)=O)[C@@H](C)O)C(C)C)[C@@H](C)O
# notes: also called 30; compound 30
# B4: N^α1-[(4S)-4-carboxy-4-[[(4S)-4-carboxy-4-(19-carboxynonadecanoylamino)butanoyl]amino]butanoyl]-[Glu14,Arg17,Pro21,Pro27,Pro37]-h-amylin (peptide)
# peptide: {C20 diacid-γGlu-γGlu}-KCNTATCATQRLAEFLRHSSPNFGAIPSSTNVGSNTP-NH2
# modifications: disulfide 2-7
# SMILES: CC[C@H](C)[C@H](NC(=O)[C@H](C)NC(=O)CNC(=O)[C@H](Cc1ccccc1)NC(=O)[C@H](CC(N)=O)NC(=O)[C@@H]1CCCN1C(=O)[C@H](CO)NC(=O)[C@H](CO)NC(=O)[C@H](Cc1c[nH]cn1)NC(=O)[C@H](CCCNC(=N)N)NC(=O)[C@H](CC(C)C)NC(=O)[C@H](Cc1ccccc1)NC(=O)[C@H](CCC(=O)O)NC(=O)[C@H](C)NC(=O)[C@H](CC(C)C)NC(=O)[C@H](CCCNC(=N)N)NC(=O)[C@H](CCC(N)=O)NC(=O)[C@@H](NC(=O)[C@H](C)NC(=O)[C@@H]1CSSC[C@H](NC(=O)[C@H](CCCCN)NC(=O)CC[C@H](NC(=O)CC[C@H](NC(=O)CCCCCCCCCCCCCCCCCCC(=O)O)C(=O)O)C(=O)O)C(=O)N[C@@H](CC(N)=O)C(=O)N[C@@H]([C@@H](C)O)C(=O)N[C@@H](C)C(=O)N[C@@H]([C@@H](C)O)C(=O)N1)[C@@H](C)O)C(=O)N1CCC[C@H]1C(=O)N[C@@H](CO)C(=O)N[C@@H](CO)C(=O)N[C@H](C(=O)N[C@@H](CC(N)=O)C(=O)N[C@H](C(=O)NCC(=O)N[C@@H](CO)C(=O)N[C@@H](CC(N)=O)C(=O)N[C@H](C(=O)N1CCC[C@H]1C(N)=O)[C@@H](C)O)C(C)C)[C@@H](C)O
# notes: also called 14; compound 14
# B5: N^α1N^α1-[(4S)-4-carboxy-4-(19-carboxynonadecanoylamino)butanoyl]-[Glu14,Arg17,Pro21,Pro27,Glu35]-h-amylin (peptide)
# peptide: {C20 diacid-γGlu}-KCNTATCATQRLAEFLRHSSPNFGAIPSSTNVGSETY-NH2
# modifications: disulfide 2-7
# SMILES: CC[C@H](C)[C@H](NC(=O)[C@H](C)NC(=O)CNC(=O)[C@H](Cc1ccccc1)NC(=O)[C@H](CC(N)=O)NC(=O)[C@@H]1CCCN1C(=O)[C@H](CO)NC(=O)[C@H](CO)NC(=O)[C@H](Cc1c[nH]cn1)NC(=O)[C@H](CCCNC(=N)N)NC(=O)[C@H](CC(C)C)NC(=O)[C@H](Cc1ccccc1)NC(=O)[C@H](CCC(=O)O)NC(=O)[C@H](C)NC(=O)[C@H](CC(C)C)NC(=O)[C@H](CCCNC(=N)N)NC(=O)[C@H](CCC(N)=O)NC(=O)[C@@H](NC(=O)[C@H](C)NC(=O)[C@@H]1CSSC[C@H](NC(=O)[C@H](CCCCN)NC(=O)CC[C@H](NC(=O)CCCCCCCCCCCCCCCCCCC(=O)O)C(=O)O)C(=O)N[C@@H](CC(N)=O)C(=O)N[C@@H]([C@@H](C)O)C(=O)N[C@@H](C)C(=O)N[C@@H]([C@@H](C)O)C(=O)N1)[C@@H](C)O)C(=O)N1CCC[C@H]1C(=O)N[C@@H](CO)C(=O)N[C@@H](CO)C(=O)N[C@H](C(=O)N[C@@H](CC(N)=O)C(=O)N[C@H](C(=O)NCC(=O)N[C@@H](CO)C(=O)N[C@@H](CCC(=O)O)C(=O)N[C@H](C(=O)N[C@@H](Cc1ccc(O)cc1)C(N)=O)[C@@H](C)O)C(C)C)[C@@H](C)O
# notes: also called 22; compound 22
# B6: N^ε1-[2-[2-[2-(19-carboxynonadecanoylamino)ethoxy]ethoxy]acetyl]-[Arg17,Pro21,Pro27,His34]-h-amylin (peptide)
# peptide: K([AEEA-C20 diacid])CNTATCATQRLANFLRHSSPNFGAIPSSTNVGHNTY-NH2
# modifications: disulfide 2-7; N-terminus assumed
# SMILES: CC[C@H](C)[C@H](NC(=O)[C@H](C)NC(=O)CNC(=O)[C@H](Cc1ccccc1)NC(=O)[C@H](CC(N)=O)NC(=O)[C@@H]1CCCN1C(=O)[C@H](CO)NC(=O)[C@H](CO)NC(=O)[C@H](Cc1c[nH]cn1)NC(=O)[C@H](CCCNC(=N)N)NC(=O)[C@H](CC(C)C)NC(=O)[C@H](Cc1ccccc1)NC(=O)[C@H](CC(N)=O)NC(=O)[C@H](C)NC(=O)[C@H](CC(C)C)NC(=O)[C@H](CCCNC(=N)N)NC(=O)[C@H](CCC(N)=O)NC(=O)[C@@H](NC(=O)[C@H](C)NC(=O)[C@@H]1CSSC[C@H](NC(=O)[C@@H](N)CCCCNC(=O)COCCOCCNC(=O)CCCCCCCCCCCCCCCCCCC(=O)O)C(=O)N[C@@H](CC(N)=O)C(=O)N[C@@H]([C@@H](C)O)C(=O)N[C@@H](C)C(=O)N[C@@H]([C@@H](C)O)C(=O)N1)[C@@H](C)O)C(=O)N1CCC[C@H]1C(=O)N[C@@H](CO)C(=O)N[C@@H](CO)C(=O)N[C@H](C(=O)N[C@@H](CC(N)=O)C(=O)N[C@H](C(=O)NCC(=O)N[C@@H](Cc1c[nH]cn1)C(=O)N[C@@H](CC(N)=O)C(=O)N[C@H](C(=O)N[C@@H](Cc1ccc(O)cc1)C(N)=O)[C@@H](C)O)C(C)C)[C@@H](C)O
# notes: also called 91; compound 91
# B7: N^ε1-[2-[2-[2-(19-carboxynonadecanoylamino)ethoxy]ethoxy]acetyl]-[His14,Arg17,Pro21,Pro27]-h-amylin (peptide)
# peptide: K([AEEA-C20 diacid])CNTATCATQRLAHFLRHSSPNFGAIPSSTNVGSNTY-NH2
# modifications: disulfide 2-7; N-terminus assumed
# SMILES: CC[C@H](C)[C@H](NC(=O)[C@H](C)NC(=O)CNC(=O)[C@H](Cc1ccccc1)NC(=O)[C@H](CC(N)=O)NC(=O)[C@@H]1CCCN1C(=O)[C@H](CO)NC(=O)[C@H](CO)NC(=O)[C@H](Cc1c[nH]cn1)NC(=O)[C@H](CCCNC(=N)N)NC(=O)[C@H](CC(C)C)NC(=O)[C@H](Cc1ccccc1)NC(=O)[C@H](Cc1c[nH]cn1)NC(=O)[C@H](C)NC(=O)[C@H](CC(C)C)NC(=O)[C@H](CCCNC(=N)N)NC(=O)[C@H](CCC(N)=O)NC(=O)[C@@H](NC(=O)[C@H](C)NC(=O)[C@@H]1CSSC[C@H](NC(=O)[C@@H](N)CCCCNC(=O)COCCOCCNC(=O)CCCCCCCCCCCCCCCCCCC(=O)O)C(=O)N[C@@H](CC(N)=O)C(=O)N[C@@H]([C@@H](C)O)C(=O)N[C@@H](C)C(=O)N[C@@H]([C@@H](C)O)C(=O)N1)[C@@H](C)O)C(=O)N1CCC[C@H]1C(=O)N[C@@H](CO)C(=O)N[C@@H](CO)C(=O)N[C@H](C(=O)N[C@@H](CC(N)=O)C(=O)N[C@H](C(=O)NCC(=O)N[C@@H](CO)C(=O)N[C@@H](CC(N)=O)C(=O)N[C@H](C(=O)N[C@@H](Cc1ccc(O)cc1)C(N)=O)[C@@H](C)O)C(C)C)[C@@H](C)O
# notes: also called 90; compound 90
# Target: T1, human amylin receptor (amylin 3(a) …)
# Assay: SPA displacement of 125I-rat amylin, hAmylin 3(a) receptor membranes
# Method in brief: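 SPA beads with BHK Amylin 3(a)/CRE-luc cell membranes (35 ng/μL final) in 50 mM Hepes pH 7.4, 1 mM CaCl2, 5 mM MgCl₂, 0.1% OA, 0.02% Tween20.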
row,Binder,IC50
1,B1,0.204 nM
2,"{C20 diacid-γGlu}-KCNTATCATQRLAEFLRHSSPNFGAIPSSTNVGSNTP-NH2 (disulfide 2-7, also called compound 8)",0.072 nM
3,B2,0.143 nM
4,"{C20 diacid-γGlu}-KCNTATCATQRLAEFLRHSSPNFGAILPSTNVGSETY-NH2 (disulfide 2-7, also called 33; compound 33)",0.915 nM
5,B3,0.919 nM
6,B4,0.196 nM
7,B5,0.794 nM
8,B6,0.119 nM
9,B7,0.061 nM
